Measured values published in the supplement of paper PMC11316812.
± gives the standard deviation of the averaged measurements.

What was measured:
MCF7 = experiment: percentage of EdU-negative (G0-arrested) nuclei per well, 72 h; higher = more G0 arrest; conditions: reference: sequence is the full UniProt precursor, the tested protein was the secreted form or ectodomain
hTERT-HMEC = experiment: as above; conditions: reference: sequence is the full UniProt precursor, the tested protein was the secreted form or ectodomain
[1] = protein concentration 0.0357143 µM
[2] = protein concentration 0.357143 µM
[3] = protein concentration 0.03125 µM
[4] = protein concentration 0.3125 µM
[5] = protein concentration 0.0257143 µM
[6] = protein concentration 0.257143 µM
[7] = protein concentration 0.026505 µM
[8] = protein concentration 0.26505 µM
[9] = protein concentration 0.02859 µM
[10] = protein concentration 0.2859 µM
[11] = protein concentration 0.01825 µM
[12] = protein concentration 0.1825 µM
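Note: secreted proteins added to cultured cells, EdU pulse at the end, nuclei found by Hoechst imaging, EdU status from nuclear versus surrounding ring intensity ratio, PBS as neutral control.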

MKRVLVLLLAVAFGHALERGRDYEKNKVCKEFSHLGKEDFTSLSLVLYSRKFPSGTFEQVSQLVKEVVSLTEACCAEGADPDCYDTRTSALSAKSCESNSPFPVHPGTAECCTKEGLERKLCMAALKHQPQEFPTYVEPTNDEICEAFRKDPKEYANQFMWEYSTNYGQAPLSLLVSYTKSYLSMVGSCCTSASPTVCFLKERLQLKHLSLLTTLSNRVCSQYAAYGEKKSRLSNLIKLAQKVPTADLEDVLPLAEDITNILSKCCESASEDCMAKELPEHTVKLCDNLSTKNSKFEDCCQEKTAMDVFVCTYFMPAAQLPELPDVELPTNKDVCDPGNTKVMDKYTFELSRRTHLPEVFLSKVLEPTLKSLGECCDVEDSTTCFNAKGPLLKKELSSFIDKGQELCADYSENTFTEYKKKLAERLKAKLPDATPTELAKLVNKHSDFASNCCSINSPPLYCDSEIDAELKNIL
percentage of EdU-negative (MCF7; [1]): 25.9 ± 0.66%
percentage of EdU-negative (MCF7; [2]): 27.2 ± 1.1%
percentage of EdU-negative (hTERT-HMEC; [1]): 6.02 ± 1.8%
percentage of EdU-negative (hTERT-HMEC; [2]): 16.1 ± 0.49%

MKSFLLVVNALALTLPFLAVEVQNQKQPACHENDERPFYQKTAPYVPMYYVPNSYPYYGTNLYQRRPAIAINNPYVPRTYYANPAVVRPHAQIPQRQYLPNSHPPTVVRRPNLHPSFIAIPPKKIQDKIIIPTINTIATVEPTPAPATEPTVDSVVTPEAFSESIITSTPETTTVAVTPPTA
percentage of EdU-negative (MCF7; protein concentration 0.01 µM): 24.6 ± 1.5%
percentage of EdU-negative (MCF7; protein concentration 0.1 µM): 25.6 ± 1.9%
percentage of EdU-negative (hTERT-HMEC; protein concentration 0.01 µM): 5.78 ± 0.51%
percentage of EdU-negative (hTERT-HMEC; protein concentration 0.1 µM): 5.65 ± 0.83%

MKSGLWYFFLFCLRIKVLTGEINGSANYEMFIFHNGGVQILCKYPDIVQQFKMQLLKGGQILCDLTKTKGSGNTVSIKSLKFCHSQLSNNSVSFFLYNLDHSHANYYFCNLSIFDPPPFKVTLTGGYLHIYESQLCCQLKFWLPIGCAAFVVVCILGCILICWLTKKKYSSSVHDPNGEYMFMRAVNTAKKSRLTDVTL [Q9Y6W8]
percentage of EdU-negative (MCF7; [3]): 25.2 ± 1.7%
percentage of EdU-negative (MCF7; [4]): 25.9 ± 0.78%
percentage of EdU-negative (hTERT-HMEC; [3]): 4.29 ± 0.34%
percentage of EdU-negative (hTERT-HMEC; [4]): 4.32 ± 0.26%

MKSLTWILGLWALAACFTPGESQRGPRGPYPPGPLAPPPPPCFPFGTGFVPPPHPPPYGPGRFPPPLSPPYGPGRIPPSPPPPYGPGRIQSHSLPPPYGPGYPQPPSQPRPYPPGPPFFPVNSPTDPALPTPAP
percentage of EdU-negative (MCF7; [5]): 22.6 ± 1%
percentage of EdU-negative (MCF7; [6]): 26.45 ± 0.12%
percentage of EdU-negative (hTERT-HMEC; [5]): 5.63 ± 1.3%
percentage of EdU-negative (hTERT-HMEC; [6]): 7.43 ± 0.82%

MKSLTWILGLWALAACFTPGESQRGPRGPYPPGPLAPPQPFGPGFVPPPPPPPYGPGRIPPPPPAPYGPGIFPPPPPQP
percentage of EdU-negative (MCF7; [5]): 26.1 ± 0.69%
percentage of EdU-negative (MCF7; [6]): 29.6 ± 2.1%
percentage of EdU-negative (hTERT-HMEC; [5]): 5.18 ± 0.72%
percentage of EdU-negative (hTERT-HMEC; [6]): 6.25 ± 0.39%

MKSLVLLLCLAQLWGCHSAPHGPGLIYRQPNCDDPETEEAALVAIDYINQNLPWGYKHTLNQIDEVKVWPQQPSGELFEIEIDTLETTCHVLDPTPVARCSVRQLKEHAVEGDCDFQLLKLDGKFSVVYAKCDSSPDSAEDVRKVCQDCPLLAPLNDTRVVHAAKAALAAFNAQNNGSNFQLEEISRAQLVPLPPSTYVEFTVSGTDCVAKEATEAAKCNLLAEKQYGFCKATLSEKLGGAEVAVTCMVFQTQPVSSQPQPEGANEAVPTPVVDPDAPPSPPLGAPGLPPAGSPPDSHVLLAAPPGHQLHRAHYDLRHTFMGVVSLGSPSGEVSHPRKTRTVVQPSVGAAAGPVVPPCPGRIRHFKV
percentage of EdU-negative (MCF7; [7]): 26.1 ± 1.4%
percentage of EdU-negative (MCF7; [8]): 26.2 ± 2.4%
percentage of EdU-negative (hTERT-HMEC; [7]): 4.56 ± 0.2%
percentage of EdU-negative (hTERT-HMEC; [8]): 6.7 ± 0.16%

MKSVLLLTTLLVPAHLVAAWSNNYAVDCPQHCDSSECKSSPRCKRTVLDDCGCCRVCAAGRGETCYRTVSGMDGMKCGPGLRCQPSNGEDPFGEEFGICKDCPYGTFGMDCRETCNCQSGICDRGTGKCLKFPFFQYSVTKSSNRFVSLTEHDMASGDGNIVREEVVKENAAGSPVMRKWLNPR [Q9NQ30]
percentage of EdU-negative (MCF7; [9]): 24.2 ± 1%
percentage of EdU-negative (MCF7; [10]): 25.25 ± 0.057%
percentage of EdU-negative (hTERT-HMEC; [9]): 4.84 ± 1.4%
percentage of EdU-negative (hTERT-HMEC; [10]): 5.91 ± 0.64%

MKTALILLSILGMACAFSMKNLHRRVKIEDSEENGVFKYRPRYYLYKHAYFYPHLKRFPVQGSSDSSEENGDDSSEEEEEEEETSNEGENNEESNEDEDSEAENTTLSATTLGYGEDATPGTGYTGLAAIQLPKKAGDITNKATKEKESDEEEEEEEEGNENEESEAEVDENEQGINGTSTNSTEAENGNGSSGGDNGEEGEEESVTGANAEDTTETGRQGKGTSKTTTSPNGGFEPTTPPQVYRTTSPPFGKTTTVEYEGEYEYTGANEYDNGYEIYESENGEPRGDNYRAYEDEYSYFKGQGYDGYDGQNYYHHQ
percentage of EdU-negative (MCF7; [11]): 21.2 ± 2.7%
percentage of EdU-negative (MCF7; [12]): 24.2 ± 2.1%
percentage of EdU-negative (hTERT-HMEC; [11]): 5.184 ± 0.032%
percentage of EdU-negative (hTERT-HMEC; [12]): 5.29 ± 1.4%
